The target of test [1] is glycophorin A associated protein (GPA) on mouse red blood cells (mouse). As to the kind of experiment: preloaded mouse RBCs injected in mice; RBC vs plasma radioactivity (in vivo).
The target is the same in test [2]. The experiment in a line: 125I-labeled fusion on mouse RBCs, 1% hematocrit, saturation binding (FIG. 4C).
The target of test [3] is human red blood cells (human). As to the kind of experiment: 125I-labeled fusion on human RBCs, 10% hematocrit, 1 h at 37° C, gamma counting.
Test [4] has as its target glycophorin A associated protein (GPA) on mouse red blood cells (mouse). The experiment in a line: 125I-labeled fusion on mouse RBCs, 10% hematocrit, 1 h at 37° C, gamma counting.
Test [5] has the same target. As to the kind of experiment: 125I-labeled fusion injected i.v. in mice; RBC vs plasma radioactivity in blood (in vivo).
Test [6] shares this target. As to the kind of experiment: 125I-labeled fusion at 40 µg/ml on mouse RBCs at ~50% hematocrit in PBS/BSA or heparinated plasma, 37° C, time course.

This note sets out measurements from US20100285015A1.

B1: Ter119scFv-mRNK fusion protein (protein)
chain: RSPWPGVPTSQVKLQESGGGLVQPGGSLKLSCVASGFTFRDHWMNWVRQAPGKTMEWIGDIRPDGSDTNYAPSVRNRFTISRDNARSILYLQMSNMRSDYTATYYCVRDSPTRAGLMDAWGQGASVTVLTGGGGSGGGGSGGGGSDIQMIQSPSVLSASVGDRVTLNCKASQNINKYLNWYQQKLGEAPKVLIYNTNNLQTGIPSRFSGSGSGTDFTLTISSLQPEDFATYFCFQHYTWPTFGGGTKLELKRASSSSGSSSSGAAAPKGKSEDCYVGKGVTYRGTHSLTTSQASCLPWNSIVLMGKSYTAWRTNSQALGLGRHNYCRNPDGDARPWCHVMKDRKLTWEYCDMSPCSTCGLRQYKRPQFRIKGGLYTDITSHPWQAPIFVAAAASPGERFLCGGVLISSCWVLSAAHCFLERFPPNHLKVVLGRTYRVVPGEEEQTFEIEKYIVHEEFDDDTYDNDIALLQLRSQSKQCAQESSSVGTACLPDPNLQLPDWTECELSGYGKHEASSPFFSDRLKEAHVRLYPSSRCTSQHLFNKTVTNNMLCAGDTRSGGNQDLHDACQGDSGGPLVCMINKQMTLTGIISWGLGCGQKDVPGVYTKVTNYLDWIHDNMKQ
modifications: 125I radiolabel in the binding assays
On to B1, for which, in test [1], the percent of fusion in the bloodstream associated with RBCs (one hour) is 90 % ID and the percent of fusion in the bloodstream associated with RBCs (three hours) came to 75 % ID. In addition, in test [2], the Bmax (molecules/RBC) turned out to be 80000 and the dissociation constant (Kd) worked out at 77.9 nM. Besides, in test [3], the molecules/hRBC (molecules/hRBC) came out at 120. Further, the molecules/mRBC (molecules/mRBC) in test [4] stood at 20000. For the same molecule, the percent associated with RBC in test [5] was determined as 90%. Besides, the 50% saturation time in test [6] amounted to 30 min.
